{"source": "paper PMC10355822", "key": {"[1]": {"target": "M. polysiphoniae SPARTA (MapSPARTA) complex of MapAgo and MapTIR-APAZ (Maribacter polysiphoniae)", "assay": "mass photometry"}, "[2]": {"target": "M. polysiphoniae SPARTA (MapSPARTA) complex of MapAgo and MapTIR-APAZ (Maribacter polysiphoniae)", "assay": "cryo-EM structure"}, "[3]": {"target": "M. polysiphoniae SPARTA (MapSPARTA) complex of MapAgo and MapTIR-APAZ (Maribacter polysiphoniae)", "assay": "cryo-EM structure", "remark": "listed apart in the source"}}, "note": "Where “and” joins values, the source holds several entries; their conditions need not be identical. Equal values may be shown once.", "data": [{"substance": "M. polysiphoniae SPARTA (MapSPARTA) complex of MapAgo and MapTIR-APAZ", "values": [{"measurement": "stoichiometry N", "setting": "[1]", "value": "2 and 4"}, {"measurement": "stoichiometry N", "setting": "[2]", "value": 4}, {"measurement": "stoichiometry N", "setting": "[3]", "value": 2}]}]}
